Results published in patent publication US20260125457A1 (Janssen / Centocor, published 2026).
Values belong to the binder of their own block, whether it stands above or below them.

Experiments:
[1] = target: T1, CALRdel52 (mutant calreticulin, 52 base pair deletion, Type 1) expressed with MPL on engineered cancer cells (UniProt P27797 18-417); test: flow cytometry on OCI-M2 MPL CALRdel52 cells, 1 h at 37 C, AF647 secondary antibody, Geometric Mean
T1 construct: whole, on cells; On the cell surface in complex with MPL; also called OCI-M2 MPL CALRdel52
T1 sequence (looked up): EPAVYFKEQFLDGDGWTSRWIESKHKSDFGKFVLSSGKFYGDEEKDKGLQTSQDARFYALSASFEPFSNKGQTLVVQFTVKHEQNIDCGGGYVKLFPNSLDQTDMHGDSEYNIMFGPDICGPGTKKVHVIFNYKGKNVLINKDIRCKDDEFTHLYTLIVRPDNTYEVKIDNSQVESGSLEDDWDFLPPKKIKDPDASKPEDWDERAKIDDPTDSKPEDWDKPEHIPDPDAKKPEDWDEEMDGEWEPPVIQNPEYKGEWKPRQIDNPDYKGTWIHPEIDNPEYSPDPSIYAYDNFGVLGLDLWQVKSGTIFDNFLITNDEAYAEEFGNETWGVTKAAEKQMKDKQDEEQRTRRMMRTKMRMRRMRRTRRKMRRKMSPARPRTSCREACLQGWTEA
Protocol: FIGS. 21A-21F depict binding of different CALRmutxCD3 bispecific antibodies to CALRmut-negative or CALRmut-positive cells. Flow cytometry was used to evaluate CALRmutxCD3 binding to CALRmut-negative and CALRmut-positive cancer cells in vitro. CALRmutxCD3 antibodies were tested on a panel of cell lines, engineered to express MPL and CALRmut, after 1 hour 37° C. incubation, with subsequent incubation with secondary AF647-labeled antibody. Geometric mean fluorescence intensity of AF647 was measured to determine antibody binding.

[2] = target: T2, wild-type calreticulin (CALRwt) expressed with MPL in engineered cancer cells (UniProt P27797 18-417, limits assumed); test: flow cytometry, ELF-153 and OCI-M2 MPL CALRwt cells
T2 construct: whole, on cells; also called OCI-M2 MPL CALRwt
T2 sequence (looked up): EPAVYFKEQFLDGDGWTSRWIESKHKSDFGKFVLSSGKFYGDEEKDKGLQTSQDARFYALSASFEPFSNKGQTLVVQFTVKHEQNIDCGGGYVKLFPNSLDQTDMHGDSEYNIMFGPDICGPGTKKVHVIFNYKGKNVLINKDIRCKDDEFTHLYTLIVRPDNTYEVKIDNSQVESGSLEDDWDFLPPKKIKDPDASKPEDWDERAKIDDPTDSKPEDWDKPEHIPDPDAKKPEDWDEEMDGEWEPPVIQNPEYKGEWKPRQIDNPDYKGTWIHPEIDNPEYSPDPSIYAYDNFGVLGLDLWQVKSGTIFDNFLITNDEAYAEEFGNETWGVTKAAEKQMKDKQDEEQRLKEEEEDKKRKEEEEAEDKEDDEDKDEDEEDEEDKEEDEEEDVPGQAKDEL

[3] = target: T3, CD3 on primary human pan T cells (human, UniProt P07766 23-207); test: flow cytometry on pan CD3 T cells, 1 h at 37 C, AF647 secondary antibody, Geometric Mean
T3 construct: whole, on cells; also called CD3e; CD3ε
T3 sequence (P07766 23-207): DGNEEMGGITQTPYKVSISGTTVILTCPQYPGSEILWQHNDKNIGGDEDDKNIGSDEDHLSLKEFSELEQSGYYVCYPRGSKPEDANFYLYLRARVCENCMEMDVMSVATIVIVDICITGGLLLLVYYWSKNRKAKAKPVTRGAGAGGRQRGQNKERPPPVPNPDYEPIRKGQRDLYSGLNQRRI
Protocol: FIG. 22 depicts binding of different CALRmutxCD3 bispecific antibodies to pan CD3 T cells. Flow cytometry was used to evaluate CALRmutxCD3 binding to pan CD3 T cells in vitro, by 1 hour 37° C. incubation, with subsequent incubation with secondary AF647-labeled antibody. Geometric mean fluorescence intensity of AF647 was measured to determine antibody binding.
Flow cytometry was used to evaluate the CD3 arm binding of CALRmutxCD3 antibodies listed in Table 21 to CD3+ pan T cells from healthy human donor. CALRmutxCD3 were tested after 1 hour 37° C. incubation with pan T cells.

[4] = target: T4, CALRins5 (mutant calreticulin, 5 base pair insertion, Type 2) expressed with MPL on engineered cancer cells (UniProt P27797 18-417); test: flow cytometry, OCI-M2 and ELF-153 MPL CALRins5 cells
T4 construct: whole, on cells; On the cell surface in complex with MPL; also called OCI-M2 MPL CALRins5
T4 sequence (looked up): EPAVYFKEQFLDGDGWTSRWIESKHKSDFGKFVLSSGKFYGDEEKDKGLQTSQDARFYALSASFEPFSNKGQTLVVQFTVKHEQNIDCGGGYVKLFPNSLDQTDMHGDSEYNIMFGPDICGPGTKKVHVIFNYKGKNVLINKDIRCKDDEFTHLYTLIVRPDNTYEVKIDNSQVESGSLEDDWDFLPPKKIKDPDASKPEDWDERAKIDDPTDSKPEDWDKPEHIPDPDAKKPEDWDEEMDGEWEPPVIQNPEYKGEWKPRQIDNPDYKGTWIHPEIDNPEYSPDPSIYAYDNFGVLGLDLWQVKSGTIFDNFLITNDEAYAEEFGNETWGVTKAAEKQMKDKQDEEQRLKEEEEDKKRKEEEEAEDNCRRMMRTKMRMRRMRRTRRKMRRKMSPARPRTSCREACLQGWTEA

[5] = target: T1, CALRdel52 (mutant calreticulin, 52 base …); test: flow cytometry, OCI-M2 and ELF-153 MPL CALRdel52 cells
[6] = target: T2, wild-type calreticulin (CALRwt) …; test: flow cytometry, OCI-M2 and ELF-153 MPL CALRwt cells

EC50 (read off the curve) [1]: ~2 nM | binding result [2]: no binding | EC50 (read off the curve) [3]: ~5 nM
B1: C3CRB127 CALRmut x CD3 bispecific antibody (bispecific antibody, human IgG1, kappa, L234A L235A)
heavy 1: QVQLVQSGAEVKKPGASVKVSCKASGFSLSSYAMSWVRQAPGQGLEWMGVIDSGGTTYYAQKFQGRVTMTRDTSTSTVYMELSSLRSEDTAVYYCARESYAGYDYYGHPIPYGMEPWGQGTLVTVSSASTKGPSVFPLAPSSKSTSGGTAALGCLVKDYFPEPVTVSWNSGALTSGVHTFPAVLQSSGLYSLSSVVTVPSSSLGTQTYICNVNHKPSNTKVDKKVEPKSCGGGGSGGGGSEVQLVESGGGLVKPGGSLRLSCAASGFTFSRYNMNWVRQAPGCGLEWVSSISTSSNYIYYADSVKGRFTFSRDNAKNSLDLQMSGLRAEDTAIYYCTRGWGPFDYWGQGTLVTVSSGGGSGGSGGCPPCGGSGGDIQMTQSPSSLSASVGDRVTITCRARQSIGTAIHWYQQKPGKAPKLLIKYASESISGVPSRFSGSGSGTDFTLTISSLQPEDFATYYCQQSGSWPYTFGCGTKLEIKEPKSSDKTHTCPPCPAPEAAGGPSVFLFPPKPKDTLMISRTPEVTCVVVSVSHEDPEVKFNWYVDGVEVHNAKTKPREEQYNSTYRVVSVLTVLHQDWLNGKEYKCKVSNKALPAPIEKTISKAKGQPREPQVYTLPPSREEMTKNQVSLWCLVKGFYPSDIAVEWESNGQPENNYKTTPPVLDSDGSFFLYSKLTVDKSRWQQGNVFSCSVMHEALHNHYTQKSLSLSPGK
heavy 2: QVQLVQSGAEVKKPGASVKVSCKASGFSLSSYAMSWVRQAPGQGLEWMGVIDSGGTTYYAQKFQGRVTMTRDTSTSTVYMELSSLRSEDTAVYYCARESYAGYDYYGHPIPYGMEPWGQGTLVTVSSASTKGPSVFPLAPSSKSTSGGTAALGCLVKDYFPEPVTVSWNSGALTSGVHTFPAVLQSSGLYSLSSVVTVPSSSLGTQTYICNVNHKPSNTKVDKKVEPKSCDKTHTCPPCPAPEAAGGPSVFLFPPKPKDTLMISRTPEVTCVVVSVSHEDPEVKFNWYVDGVEVHNAKTKPREEQYNSTYRVVSVLTVLHQDWLNGKEYKCKVSNKALPAPIEKTISKAKGQPREPQVYTLPPSREEMTKNQVSLSCAVKGFYPSDIAVEWESNGQPENNYKTTPPVLDSDGSFFLVSKLTVDKSRWQQGNVFSCSVMHEALHNRFTQKSLSLSPGK
light: DIQMTQSPSTLSASVGDRVTITCQASQSLYNNKNLAWYQQKPGKAPKLLIYYASALASGVPSRFSGSGSGTEFTLTISSLQPDDFATYYCQGEFNCNSADCNSFGGGTKVEIKRTVAAPSVFIFPPSDEQLKSGTASVVCLLNNFYPREAKVQWKVDNALQSGNSQESVTEQDSKDSTYSLSSTLTLSKADYEKHKVYACEVTHQGLSSPVTKSFNRGEC
notes: Chain A heavy: CALRB1114 Fab heavy part, CD3 spFv (HL), Fc; Chain B heavy: CALRB1114

binding result [4]: binds | binding result [5]: binds | binding result [6]: no binding
B2: C3CRB136 CALRmut x CD3 bispecific antibody (bispecific antibody, human IgG1, kappa, L234A L235A)
scFv: DIQMTQSPSSLSASVGDRVTITCRARQSIGTAIHWYQQKPGCAPKLLIKYASESISGVPSRFSGSGSGTDFTLTISSLQPEDFATYYCQQSGSWPYTFGQGTKLEIKGGGSGGSGGCPPCGGSGGEVQLVESGGGLVKPGGSLRLSCAASGFTFSRYNMNWVRQAPGKGLEWVSSISTSSNYIYYADSVKGRFTFSRDNAKNSLDLQMSGLRAEDTAIYYCTRGWGPFDYWGCGTLVTVSSEPKSSDKTHTCPPCPAPEAAGGPSVFLFPPKPKDTLMISRTPEVTCVVVSVSHEDPEVKFNWYVDGVEVHNAKTKPREEQYNSTYRVVSVLTVLHQDWLNGKEYKCKVSNKALPAPIEKTISKAKGQPREPQVYTLPPSREEMTKNQVSLWCLVKGFYPSDIAVEWESNGQPENNYKTTPPVLDSDGSFFLYSKLTVDKSRWQQGNVFSCSVMHEALHNHYTQKSLSLSPGK
heavy: QVQLVQSGAEVKKPGASVKVSCKASGFSLSSYAMSWVRQAPGQGLEWMGVIDSGGTTYYAQKFQGRVTMTRDTSTSTVYMELSSLRSEDTAVYYCARESYAGYDYYGHPIPYGMEPWGQGTLVTVSSASTKGPSVFPLAPSSKSTSGGTAALGCLVKDYFPEPVTVSWNSGALTSGVHTFPAVLQSSGLYSLSSVVTVPSSSLGTQTYICNVNHKPSNTKVDKKVEPKSCGGGGSGGGGSQVQLVQSGAEVKKPGASVKVSCKASGFSLSSYAMSWVRQAPGQGLEWMGVIDSGGTTYYAQKFQGRVTMTRDTSTSTVYMELSSLRSEDTAVYYCARESYAGYDYYGHPIPYGMEPWGQGTLVTVSSASTKGPSVFPLAPSSKSTSGGTAALGCLVKDYFPEPVTVSWNSGALTSGVHTFPAVLQSSGLYSLSSVVTVPSSSLGTQTYICNVNHKPSNTKVDKKVEPKSCDKTHTCPPCPAPEAAGGPSVFLFPPKPKDTLMISRTPEVTCVVVSVSHEDPEVKFNWYVDGVEVHNAKTKPREEQYNSTYRVVSVLTVLHQDWLNGKEYKCKVSNKALPAPIEKTISKAKGQPREPQVYTLPPSREEMTKNQVSLSCAVKGFYPSDIAVEWESNGQPENNYKTTPPVLDSDGSFFLVSKLTVDKSRWQQGNVFSCSVMHEALHNRFTQKSLSLSPGK
light: B1 light
notes: Chain B heavy: two CALRB1114 Fab heavy parts in tandem, Fc
